# Experimental data reported in patent EP4389215A1 (Consejo Superior De Investigaciones Científicas, dated 2024).
# Key:
# [1] = molecular target: prion-like domain (PLD) of human TDP-43 (TDP-43 274-414), unmodified (human) (UniProt Q13148); assay: cell-based or functional assay
# [2] = molecular target: prion-like domain (PLD) of human TDP-43 (TDP-43 274-414), unmodified (human) (UniProt Q13148); assay: 15N CPMG relaxation dispersion, 200 µM PLD, region 321-343; self-assembly
# [3] = molecular target: the molecule itself; assay: cell-based or functional assay
"t1/2 (h) of ThT aggregation, 10 µM PLD monomer, 0 % PLD seeds [1] [h]","t1/2 (h) of ThT aggregation, 10 µM PLD monomer, 0.1 % PLD seeds [1] [h]","t1/2 (h) of ThT aggregation, 10 µM PLD monomer, 0.5 % PLD seeds [1] [h]","t1/2 (h) of ThT aggregation, 10 µM PLD monomer, 1 % PLD seeds [1] [h]","kex (exchange rate, 15N CPMG) [2] [s⁻¹]",Molecule,"t1/2 (h) of ThT aggregation, 10 µM MetO PLD monomer, 0 % MetO PLD seeds [3] [h]","t1/2 (h) of ThT aggregation, 10 µM MetO PLD monomer, 0.1 % MetO PLD seeds [3] [h]","t1/2 (h) of ThT aggregation, 10 µM MetO PLD monomer, 0.5 % MetO PLD seeds [3] [h]","t1/2 (h) of ThT aggregation, 10 µM MetO PLD monomer, 1 % MetO PLD seeds [3] [h]"
4.87,4.99,2.88,2.86,> 2000,"prion-like domain (PLD) of human TDP-43 (TDP-43 274-414), unmodified (from UniProt Q13148 274-414)",–,–,–,–
–,–,–,–,–,"MetO PLD (MetO-PLD polypeptide of the invention; SEQ ID NO: 2 with oxidized methionine residues) (other, methionine sulfoxide at all Met residues (M307, M311, M322, M323, M336, M337, M339, M359, M405, M414, numbered on full human TDP-43, SEQ ID NO: 3); full MetO validated by mass spectrometry and NMR (M414 not detected by MS)) GRFGGNPGGFGNQGGFGNSRGGGAGLGNNQGSNMGGGMNFGAFSINPAMMAAAQAALQSSWGMMGMLASQQNQSGPSGNNQNQGNMQREPNQAFGSGNNSYSGSNSGAAIGWGSASNAGSGSGFNGGFGSSMDSKSSGWGM",54.9,38.3,18.7,18
